From paper PMC5328894, “Characterization of a Bacillus thuringiensis chitinase that binds to cellulose and chitin” (AMB Express, 2017) come the findings set out here.

Substrate in this data set: CC(=O)N[C@H]1[C@H](Oc2ccc([N+](=O)[O-])cc2)O[C@H](CO)[C@@H](O[C@@H]2O[C@H](CO)[C@@H](O)[C@H](O)[C@H]2NC(C)=O)[C@@H]1O
Nature of the data set: initial-rate hydrolysis, Michaelis-Menten fit. Conditions: 50 mM MES-NaOH, pH 6.0, 50 °C, 0.05-0.8 mM substrate. It counts as biochemical, Bacillus thuringiensis. The source says: initial-rate hydrolysis, Michaelis-Menten fit on BthChi74

B1: BthChi74 (Bacillus thuringiensis serovar israelensis ATCC 35646) (protein)
chain: MAMRSQKFTLLLLSLLLFLPLFLTNFITPNLALADSPKQSQKIVGYFPSWGVYGRNYQVADIDASKLTHLNYAFADICWKGKHGNPSTHPDNPNKQTWNCKESGVPLQNKEVPNGTLVLGEPWADVTKSYPGSGTTWEDCDKYARCGNFGELKRLKAKYPHLKTIISVGGWTWSNRFSDMAADEKTRKVFAESTVAFLRAYGFDGVDLDWEYPGVETIPGGSYRPEDKQNFTLLLQDVRNALNKAGAEDGKQYLLTIASGASQRYADHTELKKISQILDWINIMTYDFHGGWEATSNHNAALYKDPNDPAANTNFYVDGAIDVYTNEGVPVDKLVLGVPFYGRGWKSCGKENNGQYQPCKPGSDGKLASKGTWDDYSTGDTGVYDYGDLTANYVNKNGFVRYWNDTAKVPYLYNATTGTFISYDDNESMKYKTDYIKTKGLSGAMFWELSGDCRTSPKYSCSGPKLLDTLVKELLGGPINQKDTEPPTNVKNIIVTNKTSSSVQLSWTASTDNVGVTEYEITAGEEKWSATTNSITIKNLKPNTEYTFSVIAKDASGNKSHPTALTVKTDEANTTPPDGNGTATFSVTSNWGSGYNFSIIIKNNGTIPIKNWKLEFDYSGNLTQVWDSKISSKTNNHYVITNAGWNGEIPPGGSITIGGAGTGNPAELLNAVISEN
notes: GH18 catalytic domain + FNIII + CBM2; pET21d(+), E. coli BL21(DE3); vector-derived additions at N- and C-termini, C-terminal His6 designed but probably lost by processing; expected 76 kDa, 74 kDa on SDS-PAGE
Regarding B1, the Michaelis-Menten constant (Km) came out at 159 ± 0.5 µM, the catalytic constant (kcat) amounted to 1.5 ± 0.02 s⁻¹ and the kcat/Km amounted to 10000 M⁻¹ s⁻¹.

By Km is commonly meant the substrate concentration at which the rate is half of its maximum. By kcat is commonly meant the number of substrate molecules converted per active site and unit of time at saturation. Broadly, the kcat/Km is the second-order rate constant that governs catalysis at low substrate concentration.
